The results in this text go back to PMC5921417, “The β-glucosidase secreted by Talaromyces amestolkiae under carbon starvation: a versatile catalyst for biofuel production from plant and algal biomass” (Biotechnology for Biofuels, 2018).

Data set [1] concerns the target β-glucosidase BGL-3 from Talaromyces amestolkiae (native enzyme) (Talaromyces amestolkiae). The data set can be described thus: SEC; Superose 12 column; native purified BGL-3; mass around 222 kDa against 107.0 kDa for the monomer by MALDI-TOF.
Data set [2] relates to T1, O=[N+]([O-])c1ccc(O[C@@H]2O[C@H](CO)[C@@H](O)[C@H](O)[C@H]2O)cc1.
T1 construct: native enzyme secreted by T. amestolkiae, purified from culture (Mandels medium, glucose); signal peptide removed; glycosylated; gene codes for 857 aa; non-covalent dimer about 222 kDa; mature N-terminus YSPPAYP deduced from the cloning primer
The data set can be described thus: purified protein. The class given is biochemical, Talaromyces amestolkiae. Particulars: sodium acetate 100 mM pH 4.0, 70 °C (standard reaction), 0.1% BSA.

The subject of data set [3] is O=[N+]([O-])c1ccccc1O[C@@H]1O[C@H](CO)[C@@H](O)[C@H](O)[C@H]1O. Nature of the data set: purified protein. Particulars: sodium acetate 100 mM pH 4.0, 70 °C (standard reaction), 0.1% BSA.

For the substance “β-glucosidase BGL-3 from Talaromyces amestolkiae (native enzyme)”, the stoichiometry N in data set [1] turned out to be 2.

In the case of “BGL-3 (β-glucosidase g377) (Talaromyces amestolkiae)”, in data set [2], the Km came out at 140 ± 100 µM, the Vmax was 381 µmol/min/mg, the kcat stood at 1360 s⁻¹ and the kcat/Km was 9.71e+06 M⁻¹ s⁻¹. For the same substance, in data set [3], the Km came to 140 ± 100 µM, the Vmax was found to be 142 µmol/min/mg, the kcat came to 507 s⁻¹ and the kcat/Km is 3.43e+06 M⁻¹ s⁻¹.

Broadly, the stoichiometry N is the number of molecules, sites or subunits per partner or assembly. Broadly, the Km is the substrate concentration at which the rate is half of its maximum. The term Vmax denotes the top rate of the reaction or transport when substrate is in excess. One may read the kcat as the maximal rate divided by the concentration of active sites. Usually kcat/Km stands for the turnover number divided by the Michaelis constant.
